Source: the supplement of paper PMC10724198
± gives the standard deviation of the averaged measurements.

tested on: Saccharomyces cerevisiae; assay: protein stability index of tFT-peptide fusion (C-terminal peptide) (PSI (0-1 scale)); higher = more stable (slower turnover); conditions: genetic background: wild type; temperature: 30 C
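Further: PSI is a weighted mean of sequencing reads over stability bins, variants kept only with over 10 reads, mCherry proximal and sfGFP distal, peptide attached via GGGS linker.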

| Sequence | protein stability index |
| --- | --- |
| NKGHGAHSRECE | 0.65 ± 0.025 |
| NKIKKKRTEPQP | 0.66522 ± 7.3e-05 |
| NKKKEKKKNEAK | 0.684 ± 0.016 |
| NKKKNKKEEHVE | 0.688 ± 0.047 |
| NKKTKNNKGNKQ | 0.728 ± 0.063 |
| NKMLCTTEGVAA | 0.644 ± 0.038 |
| NKPPGVGHGGVT | 0.672 ± 0.025 |
| NKRKSKKRNEIE | 0.6701 ± 0.0054 |
| NKSHFGHSCYLR | 0.64 ± 0.013 |
| NKTKIKKKKKRG | 0.657 ± 0.013 |
| NKYEMRDDTMNI | 0.681 ± 0.056 |
| NLGLSGRYAPCK | 0.689 ± 0.0072 |
| NLRFLFFSSSRF | 0.682 ± 0.017 |
| NLSLYFGGVLVL | 0.603 ± 0.027 |
| NMKPPTNKGSNK | 0.675 ± 0.054 |
| NMLYRKEGWTKE | 0.655 ± 0.036 |
| NMMTSVLEGGVG | 0.699 ± 0.16 |
| NMVIRLIEKRKK | 0.663 ± 0.021 |
| NNKNNKNKIYKK | 0.679 ± 0.0091 |
| NNKRNGRIKRKI | 0.738 ± 0.02 |
| NNSCPQGHPDAR | 0.7574 ± 0.0065 |
| NNSRTNDVRRRK | 0.726 ± 0.018 |
| NPCPSVLCSNCD | 0.67 ± 0.064 |
| NPLRTQASTTAQ | 0.72 ± 0.096 |
| NQHKKGQKKKGI | 0.684 ± 0.042 |
| NRGGRKAINENG | 0.685 ± 0.036 |

| Sequence | protein stability index |
| --- | --- |
| NRGKDEIMKRDK | 0.671 ± 0.066 |
| NRKKIKSIDVRK | 0.67 ± 0.07 |
| NRRCAPVHPGPD | 0.7217 ± 0.0036 |
| NSFTYWYGGCIL | 0.802 ± 0.28 |
| NSSPVRSSCLSA | 0.6881 ± 0.0038 |
| NSTERDNGIRKE | 0.6686 ± 0.0065 |
| NTKNPRPQDPQQ | 0.651 ± 0.013 |
| NTTFISRRLPPR | 0.687 ± 0.0089 |
| NVNNNICTYRAI | 0.6776 ± 0.0046 |
| NVVFGCFFPVLT | 0.684 ± 0.04 |
| NYNGVRRYNGFK | 0.574 ± 0.052 |
| PAACPTRTCLYP | 0.719 ± 0.045 |
| PALPPPAPLPLS | 0.67261 ± 0.00022 |
| PALPPPPLLSSS | 0.705 ± 0.012 |
| PALPPPPSPPLL | 0.754 ± 0.052 |
| PALQHTVPPPPQ | 0.579 ± 0.012 |
| PANGKQNRGKRR | 0.645 ± 0.078 |
| PAPCAPLLTHRP | 0.6614 ± 0.0025 |
| PAPCPSPPAPAV | 0.708 ± 0.029 |
| PAPLFFCAPFFF | 0.715 ± 0.034 |
| PAPLSIPSTLTT | 0.609 ± 0.053 |
| PAPPLPLAPPPL | 0.771 ± 0.025 |
| PAPPSHLLLPLL | 0.768 ± 0.067 |
| PAPPSPPPHSSP | 0.751 ± 0.063 |
| PAPRPAPPSLPP | 0.709 ± 0.015 |
| PAPSPPPPRPLP | 0.716 ± 0.1 |

| Sequence | protein stability index |
| --- | --- |
| PARRPPPTPSSS | 0.631 ± 0.064 |
| PASPPLRALSSL | 0.81 ± 0.075 |
| PASQPPTPPPRS | 0.675 ± 0.11 |
| PASSTLRPPAHP | 0.723 ± 0.18 |
| PAVHLYFIPPTG | 0.644 ± 0.038 |
| PAVSRPPLPSVH | 0.7 ± 0.089 |
| PCAPHPPPWVVL | 0.6058 ± 0.0056 |
| PCDWEGCVAMNV | 0.649 ± 0.055 |
| PCFSCPPLFLRT | 0.631 ± 0.067 |
| PCGTPHVRPLAT | 0.719 ± 0.025 |
| PCLPCVDRGMRG | 0.6663 ± 0.00079 |
| PCLTCKARSIWL | 0.672 ± 0.033 |
| PCPAPPPASSSP | 0.728 ± 0.16 |
| PCPLPVLDASQF | 0.7158 ± 0.0053 |
| PCSRVICASEFT | 0.701 ± 0.045 |
| PDAGTSSLQTLT | 0.722 ± 0.036 |
| PDCPCVAVCSDI | 0.728 ± 0.032 |
| PDCQSIIRLTTG | 0.752 ± 0.098 |
| PDCVRVSGLGLS | 0.665 ± 0.045 |
| PDHPTLPRRNPL | 0.743 ± 0.039 |
| PDPPPTRPFPAP | 0.672 ± 0.045 |
| PDPPTQPTRRSR | 0.686 ± 0.029 |
| PDPTLPTPSRPP | 0.642 ± 0.024 |
| PDYPYQDQLARL | 0.784 ± 0.058 |
| PEEPSANWTGFF | 0.598 ± 0.033 |
| PEESSSEGSVKR | 0.67927 ± 0.00039 |

| Sequence | protein stability index |
| --- | --- |
| PEGQRNRDAQSA | 0.7125 ± 0.0026 |
| PEIKKNRTVSIV | 0.664 ± 0.011 |
| PEMELEKRNQHN | 0.716 ± 0.015 |
| PENKSLITSPRV | 0.628 ± 0.098 |
| PESPGSPEIRHR | 0.75 ± 0.053 |
| PFALPPPPPLVP | 0.69 ± 0.0078 |
| PFCCALPSPPSP | 0.6145 ± 0.0055 |
| PFCGSPARTTAV | 0.642 ± 0.052 |
| PFCKTDHMSMTV | 0.682 ± 0.039 |
| PFFHFLGFSYFC | 0.684 ± 0.024 |
| PFFLAFPPSPPT | 0.723 ± 0.029 |
| PFFPSQFFLFFS | 0.6477 ± 0.0048 |
| PFFSPLPPSPPP | 0.767 ± 0.11 |
| PFGRETCLTSVP | 0.648 ± 0.03 |
| PFHCLPRPPCYW | 0.708 ± 0.14 |
| PFHPSPLPAPHF | 0.638 ± 0.036 |
| PFLAWTILPLTY | 0.701 ± 0.0074 |
| PFLLVSHESSLE | 0.718 ± 0.0077 |
| PFPPPSTPASLY | 0.772 ± 0.11 |
| PFPRPAFPPYFP | 0.746 ± 0.047 |
| PFPRPALPAYQS | 0.705 ± 0.018 |
| PFPSLCFPPLNG | 0.727 ± 0.055 |
| PFPSPPAPPPLP | 0.672 ± 0.048 |
